Laboratory results reported in patent publication US20090241202A1 (MICROMET, published 2009).

Molecular target: T1, human EpCAM on Kato III gastric carcinoma cells (human, UniProt P16422 24-314)
T1 sequence (looked up): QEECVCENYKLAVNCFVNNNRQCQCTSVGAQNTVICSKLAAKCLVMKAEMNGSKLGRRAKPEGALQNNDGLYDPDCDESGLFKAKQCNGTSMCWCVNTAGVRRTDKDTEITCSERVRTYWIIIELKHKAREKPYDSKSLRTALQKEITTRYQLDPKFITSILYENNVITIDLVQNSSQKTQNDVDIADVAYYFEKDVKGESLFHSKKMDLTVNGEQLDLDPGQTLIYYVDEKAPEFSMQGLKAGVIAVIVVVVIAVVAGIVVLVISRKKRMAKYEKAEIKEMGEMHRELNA
Assay: cell-based or functional assay

- EC50 of ADCC (lysis of Kato III target cells), unstimulated human PBMC as effector cells, E:T 20:1: 2.11 µg/mL
- potency of ADCC against Anti-EpCAM, prestimulated murine NK cells as effector cells: 43.7 fold
B1: domain-grafted Anti-EpCAM (antibody, mouse IgG2a, kappa, V domains shown)
VH: EVQLLESGGGVVQPGRSLRLSCAASGFTFSSYGMHWVRQAPGKGLEWVAVISYDGSNKYYADSVKGRFTISRDNSKNTLYLQMNSLRAEDTAVYYCAKDMGWGSGWRPYYYYGMDVWGQGTTVTVSS
VL: ELQMTQSPSSLSASVGDRVTITCRTSQSISSYLNWYQQKPGQPPKLLIYWASTRESGVPDRFSGSGSGTDFTLTISSLQPEDSATYYCQQSYDIPYTFGQGTKLEIKR
